T1: FcγRIIa H (human, UniProt P12318 34-217)
T1 construct: extracellular domain; also called FcγRIIa type H; 2aH; not shown: His tag at the C terminus
T1 sequence (looked up): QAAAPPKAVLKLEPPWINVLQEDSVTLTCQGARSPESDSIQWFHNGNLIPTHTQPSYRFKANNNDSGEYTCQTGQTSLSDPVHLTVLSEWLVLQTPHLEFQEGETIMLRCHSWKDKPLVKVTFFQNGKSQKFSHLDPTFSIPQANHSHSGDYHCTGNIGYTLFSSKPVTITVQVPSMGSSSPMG

T2: FcγRIIb (human, UniProt P31994 43-217)
T2 construct: extracellular domain; also called 2b; not shown: His tag at the C terminus
T2 sequence (looked up): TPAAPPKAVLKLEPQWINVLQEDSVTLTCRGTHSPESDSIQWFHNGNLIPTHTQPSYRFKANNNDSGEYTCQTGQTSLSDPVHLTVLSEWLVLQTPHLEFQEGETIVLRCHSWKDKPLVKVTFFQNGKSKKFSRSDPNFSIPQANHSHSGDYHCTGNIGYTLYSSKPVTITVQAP


Tests used:
FcγRIIa H [1] = biological target: T1, FcγRIIa H; assay: SPR (Biacore); He/Con_2aH divided by He/Con_2b (FcγRIIa H over FcγRIIb)
FcγRIIb = biological target: T2, FcγRIIb; assay: SPR (Biacore), antibody captured, FcγR as analyte; binding relative to GpH7-A5/GpH7-B3/GpL16-k0 = 100
Procedure: (§1) The heterodimerized antibodies He Abs in which one of the H chains was introduced with an alteration were assayed for their binding activities to each activating FcγR and inhibitory FcγR according to the method described in Example 4. […] The activating FcγRs in FIGS. 26, 27, 28, and 29 are FcγRIa, FcγRIIa (R), FcγRIIa (H), and FcγRIIIa, respectively.
(§2) Analysis of interaction between objective antibody and the FcγR was carried out using Biacore T100 (GE Healthcare). HBS-EP+ (GE Healthcare) was used as the running buffer, and the measurement temperature was set to 25° C. Chips produced by immobilizing the antigen peptide by the amine coupling method to a Series S Sencor Chip CM5 (GE Healthcare), or alternatively, chips produced by allowing preliminarily biotinylated antigen peptides to interact with and immobilize onto a Series S Sensor Chip SA (certified) (GE Healthcare) were used. Antibodies of interest were captured onto an antigen peptide-immobilized chip, and allowed to interact to each FcγR diluted with running buffer. To regenerate and repeatedly use the chip, the antibodies captured on the chip were washed off by reacting 10 mM glycine-HCl, pH 1.5.

FcγRIIa H [2] = biological target: T1, FcγRIIa H; assay: as above
Procedure: as §1, §2

Binder | He_2aH/2b (IIaH/IIb) (FcγRIIa H [1]) [ratio] | He/Con_2b (FcγRIIb) | He/Con_2aH (FcγRIIa H [2])
GpH7-A5/GpH7-B3 variant G236_02A/GpL16-k0 (antibody, human IgG1, kappa, Heterodimerized IgG1; mutation in the GpH7-B3 chain only; also called He Ab) heavy 1: not shown heavy 2: not shown light: DIVMTQSPLSLPVTPGEPASISCQASESLVHSNRNTYLHWYLQKPGQSPQLLIYKVSNRFSGVPDRFSGSGSGTDFTLKISRVEAEDVGVYYCSQNTHVPPTFGQGTKVEIERTVAAPSVFIFPPSDEQLKSGTASVVCLLNNFYPREAKVQWKVDNALQSGNSQESVTEQDSKDSTYSLSSTLTLSKADYEKHKVYACEVTHQGLSSPVTKSFNRGEC | 1.44 | 96.5 % of control | 139 % of control
GpH7-A5/GpH7-B3 variant G236_14T/GpL16-k0 (antibody, human IgG1, kappa, Heterodimerized IgG1; mutation in the GpH7-B3 chain only; also called He Ab) heavy 1: not shown heavy 2: not shown light: DIVMTQSPLSLPVTPGEPASISCQASESLVHSNRNTYLHWYLQKPGQSPQLLIYKVSNRFSGVPDRFSGSGSGTDFTLKISRVEAEDVGVYYCSQNTHVPPTFGQGTKVEIERTVAAPSVFIFPPSDEQLKSGTASVVCLLNNFYPREAKVQWKVDNALQSGNSQESVTEQDSKDSTYSLSSTLTLSKADYEKHKVYACEVTHQGLSSPVTKSFNRGEC | 1.79 | 57.8 % of control | 103 % of control
GpH7-A5/GpH7-B3 variant G236_03V/GpL16-k0 (antibody, human IgG1, kappa, Heterodimerized IgG1; mutation in the GpH7-B3 chain only; also called He Ab) heavy 1: not shown heavy 2: not shown light: DIVMTQSPLSLPVTPGEPASISCQASESLVHSNRNTYLHWYLQKPGQSPQLLIYKVSNRFSGVPDRFSGSGSGTDFTLKISRVEAEDVGVYYCSQNTHVPPTFGQGTKVEIERTVAAPSVFIFPPSDEQLKSGTASVVCLLNNFYPREAKVQWKVDNALQSGNSQESVTEQDSKDSTYSLSSTLTLSKADYEKHKVYACEVTHQGLSSPVTKSFNRGEC | 3.39 | 35.3 % of control | 119 % of control
GpH7-A5/GpH7-B3 variant G236_13S/GpL16-k0 (antibody, human IgG1, kappa, Heterodimerized IgG1; mutation in the GpH7-B3 chain only; also called He Ab) heavy 1: not shown heavy 2: not shown light: DIVMTQSPLSLPVTPGEPASISCQASESLVHSNRNTYLHWYLQKPGQSPQLLIYKVSNRFSGVPDRFSGSGSGTDFTLKISRVEAEDVGVYYCSQNTHVPPTFGQGTKVEIERTVAAPSVFIFPPSDEQLKSGTASVVCLLNNFYPREAKVQWKVDNALQSGNSQESVTEQDSKDSTYSLSSTLTLSKADYEKHKVYACEVTHQGLSSPVTKSFNRGEC | 1.39 | 96.7 % of control | 135 % of control
GpH7-A5/GpH7-B3 variant G236_07I/GpL16-k0 (antibody, human IgG1, kappa, Heterodimerized IgG1; mutation in the GpH7-B3 chain only; also called He Ab) heavy 1: not shown heavy 2: not shown light: DIVMTQSPLSLPVTPGEPASISCQASESLVHSNRNTYLHWYLQKPGQSPQLLIYKVSNRFSGVPDRFSGSGSGTDFTLKISRVEAEDVGVYYCSQNTHVPPTFGQGTKVEIERTVAAPSVFIFPPSDEQLKSGTASVVCLLNNFYPREAKVQWKVDNALQSGNSQESVTEQDSKDSTYSLSSTLTLSKADYEKHKVYACEVTHQGLSSPVTKSFNRGEC | 3.72 | 31 % of control | 115 % of control
GpH7-A5/GpH7-B3 variant G236_15Y/GpL16-k0 (antibody, human IgG1, kappa, Heterodimerized IgG1; mutation in the GpH7-B3 chain only; also called He Ab) heavy 1: not shown heavy 2: not shown light: DIVMTQSPLSLPVTPGEPASISCQASESLVHSNRNTYLHWYLQKPGQSPQLLIYKVSNRFSGVPDRFSGSGSGTDFTLKISRVEAEDVGVYYCSQNTHVPPTFGQGTKVEIERTVAAPSVFIFPPSDEQLKSGTASVVCLLNNFYPREAKVQWKVDNALQSGNSQESVTEQDSKDSTYSLSSTLTLSKADYEKHKVYACEVTHQGLSSPVTKSFNRGEC | 3.45 | 39.5 % of control | 136 % of control
GpH7-A5/GpH7-B3 variant G236_06M/GpL16-k0 (antibody, human IgG1, kappa, Heterodimerized IgG1; mutation in the GpH7-B3 chain only; also called He Ab) heavy 1: not shown heavy 2: not shown light: DIVMTQSPLSLPVTPGEPASISCQASESLVHSNRNTYLHWYLQKPGQSPQLLIYKVSNRFSGVPDRFSGSGSGTDFTLKISRVEAEDVGVYYCSQNTHVPPTFGQGTKVEIERTVAAPSVFIFPPSDEQLKSGTASVVCLLNNFYPREAKVQWKVDNALQSGNSQESVTEQDSKDSTYSLSSTLTLSKADYEKHKVYACEVTHQGLSSPVTKSFNRGEC | 1.88 | 45.5 % of control | 85.7 % of control
GpH7-A5/GpH7-B3 variant G236_05P/GpL16-k0 (antibody, human IgG1, kappa, Heterodimerized IgG1; mutation in the GpH7-B3 chain only; also called He Ab) heavy 1: not shown heavy 2: not shown light: DIVMTQSPLSLPVTPGEPASISCQASESLVHSNRNTYLHWYLQKPGQSPQLLIYKVSNRFSGVPDRFSGSGSGTDFTLKISRVEAEDVGVYYCSQNTHVPPTFGQGTKVEIERTVAAPSVFIFPPSDEQLKSGTASVVCLLNNFYPREAKVQWKVDNALQSGNSQESVTEQDSKDSTYSLSSTLTLSKADYEKHKVYACEVTHQGLSSPVTKSFNRGEC | 3.34 | 19 % of control | 63.5 % of control
GpH7-A5/GpH7-B3 variant L234_04F/GpL16-k0 (antibody, human IgG1, kappa, Heterodimerized IgG1; mutation in the GpH7-B3 chain only; also called He Ab) heavy 1: not shown heavy 2: not shown light: DIVMTQSPLSLPVTPGEPASISCQASESLVHSNRNTYLHWYLQKPGQSPQLLIYKVSNRFSGVPDRFSGSGSGTDFTLKISRVEAEDVGVYYCSQNTHVPPTFGQGTKVEIERTVAAPSVFIFPPSDEQLKSGTASVVCLLNNFYPREAKVQWKVDNALQSGNSQESVTEQDSKDSTYSLSSTLTLSKADYEKHKVYACEVTHQGLSSPVTKSFNRGEC | 1.2 | 99.8 % of control | 120 % of control
GpH7-A5/GpH7-B3 variant G236_12R/GpL16-k0 (antibody, human IgG1, kappa, Heterodimerized IgG1; mutation in the GpH7-B3 chain only; also called He Ab) heavy 1: not shown heavy 2: not shown light: DIVMTQSPLSLPVTPGEPASISCQASESLVHSNRNTYLHWYLQKPGQSPQLLIYKVSNRFSGVPDRFSGSGSGTDFTLKISRVEAEDVGVYYCSQNTHVPPTFGQGTKVEIERTVAAPSVFIFPPSDEQLKSGTASVVCLLNNFYPREAKVQWKVDNALQSGNSQESVTEQDSKDSTYSLSSTLTLSKADYEKHKVYACEVTHQGLSSPVTKSFNRGEC | 5.04 | 6.8 % of control | 34.2 % of control
GpH7-A5/GpH7-B3 variant L234_02A/GpL16-k0 (antibody, human IgG1, kappa, Heterodimerized IgG1; mutation in the GpH7-B3 chain only; also called He Ab) heavy 1: not shown heavy 2: not shown light: DIVMTQSPLSLPVTPGEPASISCQASESLVHSNRNTYLHWYLQKPGQSPQLLIYKVSNRFSGVPDRFSGSGSGTDFTLKISRVEAEDVGVYYCSQNTHVPPTFGQGTKVEIERTVAAPSVFIFPPSDEQLKSGTASVVCLLNNFYPREAKVQWKVDNALQSGNSQESVTEQDSKDSTYSLSSTLTLSKADYEKHKVYACEVTHQGLSSPVTKSFNRGEC | 1.25 | 64.9 % of control | 81 % of control
GpH7-A5/GpH7-B3 variant G236_08L/GpL16-k0 (antibody, human IgG1, kappa, Heterodimerized IgG1; mutation in the GpH7-B3 chain only; also called He Ab) heavy 1: not shown heavy 2: not shown light: DIVMTQSPLSLPVTPGEPASISCQASESLVHSNRNTYLHWYLQKPGQSPQLLIYKVSNRFSGVPDRFSGSGSGTDFTLKISRVEAEDVGVYYCSQNTHVPPTFGQGTKVEIERTVAAPSVFIFPPSDEQLKSGTASVVCLLNNFYPREAKVQWKVDNALQSGNSQESVTEQDSKDSTYSLSSTLTLSKADYEKHKVYACEVTHQGLSSPVTKSFNRGEC | 2.83 | 26.8 % of control | 75.8 % of control
GpH7-A5/GpH7-B3 variant G236_04F/GpL16-k0 (antibody, human IgG1, kappa, Heterodimerized IgG1; mutation in the GpH7-B3 chain only; also called He Ab) heavy 1: not shown heavy 2: not shown light: DIVMTQSPLSLPVTPGEPASISCQASESLVHSNRNTYLHWYLQKPGQSPQLLIYKVSNRFSGVPDRFSGSGSGTDFTLKISRVEAEDVGVYYCSQNTHVPPTFGQGTKVEIERTVAAPSVFIFPPSDEQLKSGTASVVCLLNNFYPREAKVQWKVDNALQSGNSQESVTEQDSKDSTYSLSSTLTLSKADYEKHKVYACEVTHQGLSSPVTKSFNRGEC | 3 | 39.3 % of control | 118 % of control
GpH7-A5/GpH7-B3 variant L234_01G/GpL16-k0 (antibody, human IgG1, kappa, Heterodimerized IgG1; mutation in the GpH7-B3 chain only; also called He Ab) heavy 1: not shown heavy 2: not shown light: DIVMTQSPLSLPVTPGEPASISCQASESLVHSNRNTYLHWYLQKPGQSPQLLIYKVSNRFSGVPDRFSGSGSGTDFTLKISRVEAEDVGVYYCSQNTHVPPTFGQGTKVEIERTVAAPSVFIFPPSDEQLKSGTASVVCLLNNFYPREAKVQWKVDNALQSGNSQESVTEQDSKDSTYSLSSTLTLSKADYEKHKVYACEVTHQGLSSPVTKSFNRGEC | 1.49 | 50.7 % of control | 75.6 % of control
GpH7-A5/GpH7-B3 variant L235_12R/GpL16-k0 (antibody, human IgG1, kappa, Heterodimerized IgG1; mutation in the GpH7-B3 chain only; also called He Ab) heavy 1: not shown heavy 2: not shown light: DIVMTQSPLSLPVTPGEPASISCQASESLVHSNRNTYLHWYLQKPGQSPQLLIYKVSNRFSGVPDRFSGSGSGTDFTLKISRVEAEDVGVYYCSQNTHVPPTFGQGTKVEIERTVAAPSVFIFPPSDEQLKSGTASVVCLLNNFYPREAKVQWKVDNALQSGNSQESVTEQDSKDSTYSLSSTLTLSKADYEKHKVYACEVTHQGLSSPVTKSFNRGEC | 3.16 | – | 30.3 % of control

Reference: patent publication US20150344570A1 (published 2015)
